This note sets out measurements from publication PMC8189437 (Molecular Cell, 2021).

T1: Gid1 (S. cerevisiae, UniProt P53076)
T1 sequence: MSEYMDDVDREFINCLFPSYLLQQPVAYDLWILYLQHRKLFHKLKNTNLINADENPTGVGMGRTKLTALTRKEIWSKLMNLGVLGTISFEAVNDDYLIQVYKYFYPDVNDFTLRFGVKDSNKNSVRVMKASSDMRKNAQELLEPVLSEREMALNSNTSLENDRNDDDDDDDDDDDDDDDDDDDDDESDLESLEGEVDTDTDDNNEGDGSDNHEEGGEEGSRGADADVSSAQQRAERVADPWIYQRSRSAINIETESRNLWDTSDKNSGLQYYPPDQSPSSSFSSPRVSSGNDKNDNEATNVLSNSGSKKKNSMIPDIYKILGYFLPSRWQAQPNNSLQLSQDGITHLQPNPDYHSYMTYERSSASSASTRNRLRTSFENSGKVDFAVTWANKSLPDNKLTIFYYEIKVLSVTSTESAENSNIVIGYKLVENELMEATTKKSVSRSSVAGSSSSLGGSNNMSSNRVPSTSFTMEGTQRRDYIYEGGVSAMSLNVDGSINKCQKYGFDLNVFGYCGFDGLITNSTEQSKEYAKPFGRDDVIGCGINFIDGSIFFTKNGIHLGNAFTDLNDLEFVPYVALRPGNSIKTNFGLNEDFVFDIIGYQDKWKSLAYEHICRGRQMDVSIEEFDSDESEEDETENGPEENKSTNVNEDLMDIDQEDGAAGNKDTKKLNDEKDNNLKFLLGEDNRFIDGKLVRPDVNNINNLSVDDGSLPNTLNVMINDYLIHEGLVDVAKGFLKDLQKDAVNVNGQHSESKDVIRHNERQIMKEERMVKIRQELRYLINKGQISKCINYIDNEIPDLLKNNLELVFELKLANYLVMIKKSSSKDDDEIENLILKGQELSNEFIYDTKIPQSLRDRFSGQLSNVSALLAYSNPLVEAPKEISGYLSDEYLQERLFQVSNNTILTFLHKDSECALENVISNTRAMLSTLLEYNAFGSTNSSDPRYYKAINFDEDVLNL

B1: Gid7 (natural protein)
chain: MSHTNKIAYVLNNDTEETASPSSVGCFDKKQLTKLLIHTLKELGYDSAANQLLLESGGYQNESNHIQTFFKLIKTGQFHLINWQIVCSLPLAHSSPLRSEWLQRLLIPTPTPATTSLFDHMLLQLQYLQQLMSSVNSSTCSDAEIATLRNYVEIMILVNRQIFLEFFHPVTNSASHKGPHTALPVLYLRKILKNFIEIWDSLLVSNDQFLNEENIFNPETTLRELSTYLTNPKLTAQLNLERDHLIDAISKYIDPNELVPKGRLLHLLKQAIKYQQSQDIFNIIDPDDDASFSSPPHRINLLQDNFSHDLTVTFQEWKTIQDTTDEIWFLTFSPNGKYLASATSESSRGYFITVYDVEQDFKIYKTCVSLSQSVLYLMFSPDSRYLVACPFSEDVTIYDMNATSLPDASATDSFLLYPSTRLSPMDSFKLDTTTYPDDTESSASSSSRPANANSNQSRVWCCDAFHTAERAGWMVVGSPDREAIVHSLTTKESLFSLKGRTCIALGHDENISGRKSIDPAKVLYKPTSSNGNWQYVEDDETFPRVHDVKISYDDKYVLLMTHQGVIDVYDFSGFPSKEELSKQTVDPKNFLIPRIARLDVGKNMTCISLPLNTTHQGFHRQQISESQHLVLVSLQDNELQMWDYKENILIQKYFGQKQQHFIIRSCFAYGNKLVMSGSEDGKIYIWDRIRGNLVSVLSGHSTVMSNSTKPMGKNCNVVASNPADKEMFASGGDDGKIKIWKISRN
B2: Gid8 with a C-terminal twin-Strep tag (natural protein)
chain: MTISTLSNETTKSGSCSGQGKNGGKDFTYGKKCFTKEEWKEQVAKYSAMGELYANKTIHYPLKIQPNSSGGSQDEGFATIQTTPIEPTLPRLLLNYFVSMAYEDSSIRMAKELGFIRNNKDIAVFNDLYKIKERFHIKHLIKLGRINEAMEEINSIFGLEVLEETFNATGSYTGRTDRQQQQQQQQFDIDGDLHFKLLLLNLIEMIRSHHQQENITKDSNDFILNLIQYSQNKLAIKASSSVKKMQELELAMTLLLFPLSDSADSGSIKLPKSLQNLYSISLRSKIADLVNEKLLKFIHPRIQFEISNNNSKFPDLLNSDKKIITQNFTVYNNNLVNGSNGTKITHISSDQPINEKMSSNEVTAAANSVWLNQRDGNVGTGSAATTFHNLENKNYWNQTSELLSSSNGKEKGLEFNNYYSSEFPYEPRLTQIMKLWCWCENQLHHNQIGVPRVEN

What all share (experiment): cryo-EM structure
One test has as its target Gid7 (S. cerevisiae) (UniProt P25569).
The target of the next test is T1, Gid1.
The target of another test is GID^SR4 (S. cerevisiae, UniProt P53076;P40208;P40547;P38263;Q12508;P40492).
In the test “Gid7” the target is B1.

GID^SR4, sequence (P40547 whole entry, chain 3 of 4): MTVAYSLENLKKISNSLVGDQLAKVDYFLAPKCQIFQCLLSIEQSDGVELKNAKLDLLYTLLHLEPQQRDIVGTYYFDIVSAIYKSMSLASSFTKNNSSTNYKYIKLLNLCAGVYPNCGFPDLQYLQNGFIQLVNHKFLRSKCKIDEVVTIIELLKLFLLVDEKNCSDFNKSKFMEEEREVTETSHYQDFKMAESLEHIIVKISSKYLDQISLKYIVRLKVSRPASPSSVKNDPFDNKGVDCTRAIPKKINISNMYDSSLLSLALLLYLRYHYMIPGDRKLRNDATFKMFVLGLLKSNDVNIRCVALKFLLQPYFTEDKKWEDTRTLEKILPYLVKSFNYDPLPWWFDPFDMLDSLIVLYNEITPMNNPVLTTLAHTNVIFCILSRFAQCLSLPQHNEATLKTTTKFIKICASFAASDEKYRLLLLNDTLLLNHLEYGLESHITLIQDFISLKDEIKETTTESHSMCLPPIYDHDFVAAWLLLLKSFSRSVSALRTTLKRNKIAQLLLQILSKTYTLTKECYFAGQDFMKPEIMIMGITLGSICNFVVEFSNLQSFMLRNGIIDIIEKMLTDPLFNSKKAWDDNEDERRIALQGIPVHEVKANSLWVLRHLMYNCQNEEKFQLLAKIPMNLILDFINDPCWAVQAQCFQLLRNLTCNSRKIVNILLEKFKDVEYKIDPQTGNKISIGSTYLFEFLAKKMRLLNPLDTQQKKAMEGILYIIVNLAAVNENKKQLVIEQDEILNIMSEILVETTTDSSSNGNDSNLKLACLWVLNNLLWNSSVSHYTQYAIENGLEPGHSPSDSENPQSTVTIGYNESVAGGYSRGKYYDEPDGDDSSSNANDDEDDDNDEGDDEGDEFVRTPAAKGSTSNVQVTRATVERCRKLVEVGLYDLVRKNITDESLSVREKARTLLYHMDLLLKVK
GID^SR4, sequence (P38263 117-362, chain 4 of 4): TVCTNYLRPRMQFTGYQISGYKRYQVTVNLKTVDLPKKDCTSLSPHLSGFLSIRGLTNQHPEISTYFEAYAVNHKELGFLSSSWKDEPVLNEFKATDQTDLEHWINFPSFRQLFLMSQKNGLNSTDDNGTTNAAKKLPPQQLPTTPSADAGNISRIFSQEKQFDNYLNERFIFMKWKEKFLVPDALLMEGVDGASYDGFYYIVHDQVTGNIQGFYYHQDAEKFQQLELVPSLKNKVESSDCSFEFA
GID^SR4, sequence (Q12508 whole entry, chain 5 of 4): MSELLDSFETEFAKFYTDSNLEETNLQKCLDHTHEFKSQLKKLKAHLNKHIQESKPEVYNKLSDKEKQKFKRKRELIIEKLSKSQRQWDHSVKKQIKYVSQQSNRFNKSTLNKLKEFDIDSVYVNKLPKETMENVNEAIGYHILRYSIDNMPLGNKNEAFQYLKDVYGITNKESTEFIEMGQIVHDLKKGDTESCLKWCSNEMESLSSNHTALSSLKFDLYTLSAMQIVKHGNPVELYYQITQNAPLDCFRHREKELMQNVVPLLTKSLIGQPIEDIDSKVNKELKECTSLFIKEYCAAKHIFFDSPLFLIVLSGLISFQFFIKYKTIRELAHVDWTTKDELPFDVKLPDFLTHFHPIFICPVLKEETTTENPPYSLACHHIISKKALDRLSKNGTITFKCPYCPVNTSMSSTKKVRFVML
GID^SR4, sequence (P40492 whole entry, chain 6 of 4): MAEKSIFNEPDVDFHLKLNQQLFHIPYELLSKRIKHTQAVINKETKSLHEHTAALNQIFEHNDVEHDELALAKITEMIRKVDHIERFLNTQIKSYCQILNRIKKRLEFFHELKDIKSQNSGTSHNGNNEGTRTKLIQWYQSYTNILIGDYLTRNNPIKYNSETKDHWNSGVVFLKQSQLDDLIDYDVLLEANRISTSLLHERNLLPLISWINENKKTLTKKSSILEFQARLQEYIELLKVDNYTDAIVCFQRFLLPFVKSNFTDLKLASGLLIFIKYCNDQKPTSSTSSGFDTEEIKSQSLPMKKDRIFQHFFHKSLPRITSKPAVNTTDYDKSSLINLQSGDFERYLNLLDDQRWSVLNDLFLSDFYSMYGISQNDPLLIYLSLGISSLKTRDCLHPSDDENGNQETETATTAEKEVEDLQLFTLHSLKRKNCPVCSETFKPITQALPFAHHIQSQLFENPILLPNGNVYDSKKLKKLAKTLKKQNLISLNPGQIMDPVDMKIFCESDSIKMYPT

Regarding B1, the stoichiometry N (as a rule, the number of molecules, sites or subunits per partner or assembly) with Gid7 (S. cerevisiae) amounted to 2. Also, the binding result with Gid1 and with GID^SR4 was “binds” throughout.
As to B2, in the test with Gid7, the binding result is recorded as “binds”.
